From PMC4749557, “ETO family protein Mtgr1 mediates Prdm14 functions in stem cell maintenance and primordial germ cell formation” (eLife, 2015) come the findings set out here.

A value given as a limit tells only on which side of the number the result lay.

B3: Mb(hPRDM14_S4) displayed on the yeast surface (designed binder)
chain: VSSVPTKLEVVAATPTSLLISWDAPAVTVDLYFITYGETGGNSPVQKFTVPGSKSTATISGLKPGVDYTITVYAQYYYRGWYVGSPISINYRT
B4: human PRDM14 (residues 238–487) (domain or fragment, UniProt Q9GZV8 238-487, looked up)
chain: LPQTLDKDSLQLPEGLCLMQTVFGEVPHFGVFCSSFIAKGVRFGPFQGKVVNASEVKTYGDNSVMWEIFEDGHLSHFIDGKGGTGNWMSYVNCARFPKEQNLVAVQCQGHIFYESCKEIHQNQELLVWYGDCYEKFLDIPVSLQVTEPGKQPSGPSEESAEGYRCERCGKVFTYKYYRDKHLKYTPCVDKGDRKFPCSLCKRSFEKRDRLRIHILHVHEKHRPHKCSTCGKCFSQSSSLNKHMRVHSGDR
modifications: biotin (biotin-acceptor tag)
notes: vector based on p28BIOH-LIC; expression vector from the Structural Genomics Consortium; also called hPRDM14; source: E. coli BL21 (DE3) with pBirACm and 50 μM biotin, purified (Ni-Sepharose); not shown: biotin-acceptor tag, N-terminal, kept

The target of assay [1] is T1, recombinant Prdm14 pre-SET+SET domains (residues 184–373) (mouse, UniProt E9Q3T6 184-373, biotin (biotin-acceptor tag)).
T1 construct: gene assembled from synthetic oligonucleotides in the pHBT vector; a TEV site lies between the tags and the protein; also called mouse Prdm14; source: E. coli BL21 (DE3) with pBirACm and 50 μM biotin, purified (Ni-Sepharose); not shown: biotin-acceptor tag, N-terminal, kept
T1 sequence (looked up): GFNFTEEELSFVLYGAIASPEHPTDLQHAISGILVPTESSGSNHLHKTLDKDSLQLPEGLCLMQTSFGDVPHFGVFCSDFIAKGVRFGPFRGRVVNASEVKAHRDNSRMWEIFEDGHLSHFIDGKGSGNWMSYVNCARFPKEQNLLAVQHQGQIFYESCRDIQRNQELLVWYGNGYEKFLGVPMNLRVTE
Nature of the assay: bead-based binding assay; biotinylated Prdm14 immobilised on streptavidin M280 beads, biotinylated Mtgr1 (NHR1) in solution, detected with SAV-Dylight650 by flow cytometer; 50 mM Tris–HCl, 150 mM NaCl, pH 8, 1 mg/ml BSA, 1 mM EDTA, 0.1 mM DTT; 1:1 model. The settings on record: both partners purified. (A flow cytometer gives signals particle by particle.)

In assay [2] the target is T2, recombinant Prdm14 (residues 184–373) E294K (mouse, UniProt E9Q3T6 184-373, E294K, biotin (biotin-acceptor tag)).
T2 construct: also called E294K Prdm14; source: E. coli BL21 (DE3) with pBirACm and 50 μM biotin, purified (Ni-Sepharose); not shown: biotin-acceptor tag, N-terminal, kept
T2 sequence (looked up): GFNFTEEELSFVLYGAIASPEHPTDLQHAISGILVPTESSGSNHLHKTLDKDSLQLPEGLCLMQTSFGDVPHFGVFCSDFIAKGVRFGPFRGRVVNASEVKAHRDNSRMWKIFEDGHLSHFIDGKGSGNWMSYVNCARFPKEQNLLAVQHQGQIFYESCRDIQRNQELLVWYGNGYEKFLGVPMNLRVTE
Nature of the assay: bead-based binding assay; biotinylated Mtgr1 (NHR1) immobilised on streptavidin M280 beads, biotinylated Prdm14 in solution, detected with SAV-Dylight650 by flow cytometer; 50 mM Tris–HCl, 150 mM NaCl, pH 8, 1 mg/ml BSA, 1 mM EDTA, 0.1 mM DTT; 1:1 model. The settings on record: both partners purified.

For assay [3], the target named is B4. In words: yeast surface display; KD of monobody clones displayed on yeast for hPRDM14. Conditions: one partner purified.
Assay [4] has as its target B3. In words: yeast surface display; monobodies on the yeast surface with 50 nM of hPRDM14 or a homologue. Conditions: one partner purified.

B1: recombinant Mtgr1 NHR1 domain (residues 98–206) (domain or fragment, mouse, UniProt O70374 98-206, looked up)
chain: LPATCGARQLSKLKRFLTTLQQFGNDISPEIGEKVRTLVLALVNSTVTIEEFHCKLQEATNFPLRPFVIPFLKANLPLLQRELLHCARAAKQTPSQYLAQHEKLLLNTS
modifications: biotin (biotin-acceptor tag)
notes: Mtgr1 (Cbfa2t2), residues 98–206 (NHR1/TAFH domain), with H200K from a cloning artifact; pHBT vector; a TEV site lies between the tags and the protein; also called wt Mtgr1; source: E. coli BL21 (DE3) with pBirACm and 50 μM biotin, purified (Ni-Sepharose); not shown: biotin-acceptor tag, N-terminal, kept
As for B1, in assay [1], the binding result was “binds”.

B2: recombinant Mtgr1 NHR1 domain (residues 98–206) K109E (domain or fragment, mouse, UniProt O70374 98-206, looked up)
chain: LPATCGARQLSELKRFLTTLQQFGNDISPEIGEKVRTLVLALVNSTVTIEEFHCKLQEATNFPLRPFVIPFLKANLPLLQRELLHCARAAKQTPSQYLAQHEKLLLNTS
modifications: biotin (biotin-acceptor tag)
notes: Mtgr1 (Cbfa2t2), residues 98–206, K109E on the pHBT construct that carries H200K; also called Mtgr1(K109E); source: E. coli BL21 (DE3) with pBirACm and 50 μM biotin, purified (Ni-Sepharose); not shown: biotin-acceptor tag, N-terminal, kept
B2: in assay [2], the binding result is “binds”.

What is called Kd is a measure of binding affinity in units of concentration. A higher Kd goes with lower affinity. In assay [3], B3 displayed a Kd of under 100 nM.

Turning to B4, the “fold stronger binding than hPRDM6 and hPRDM12” value in assay [4] is at least 5 fold.
